Biological target: human FGFR2 IIIc variant protein (isoform 1: NP-000132) (human, UniProt P21802 22-821)
Assay: flow cytometry (MFI) on transfected HEK293T cells, hybridoma supernatant; non-binding implied by 'selectively', values only in FIG. 1
Protocol: Each human FGFR expression vector constructed in Examples 1)-3-1 and 2)-1-1 was transfected to HEK293T cells by the method shown in Example 1)-5-1. The cell suspension was centrifuged to remove the supernatant. Then, these various human FGFR expression vector-transfected HEK293T cells and the pcDNA-DEST40-transfected HEK293T cells were separately suspended by the addition of the hybridoma culture supernatant containing the FR2-10, FR2-13, or FR2-14 antibody and left standing at 4° C. for 1 hour. The cells were washed twice with PBS containing 5% FBS, then suspended by the addition of Anti-Rat IgG FITC conjugate (manufactured by Sigma-Aldrich Corp.) diluted 320-fold with PBS containing 5% FBS, and left standing at 4° C. for 1 hour. The cells were washed 3 times with PBS containing 5% FBS and then resuspended in PBS containing 5% FBS and 2 μg/ml 7-aminoactinomycin D (manufactured by Molecular Probes, Inc.), followed by detection using a flow cytometer (FC500; manufactured by Beckman Coulter Inc.). The data was analyzed using Flowjo (manufactured by Tree Star Inc.). After removal of 7-aminoactinomycin D-positive dead cells by gating, the FITC fluorescence intensity of live cells was plotted to a histogram to calculate average fluorescence intensity (MFI).

Sequence of human FGFR2 IIIc variant protein (isoform 1: NP-000132) (P21802 22-821 limits assumed, change not shown): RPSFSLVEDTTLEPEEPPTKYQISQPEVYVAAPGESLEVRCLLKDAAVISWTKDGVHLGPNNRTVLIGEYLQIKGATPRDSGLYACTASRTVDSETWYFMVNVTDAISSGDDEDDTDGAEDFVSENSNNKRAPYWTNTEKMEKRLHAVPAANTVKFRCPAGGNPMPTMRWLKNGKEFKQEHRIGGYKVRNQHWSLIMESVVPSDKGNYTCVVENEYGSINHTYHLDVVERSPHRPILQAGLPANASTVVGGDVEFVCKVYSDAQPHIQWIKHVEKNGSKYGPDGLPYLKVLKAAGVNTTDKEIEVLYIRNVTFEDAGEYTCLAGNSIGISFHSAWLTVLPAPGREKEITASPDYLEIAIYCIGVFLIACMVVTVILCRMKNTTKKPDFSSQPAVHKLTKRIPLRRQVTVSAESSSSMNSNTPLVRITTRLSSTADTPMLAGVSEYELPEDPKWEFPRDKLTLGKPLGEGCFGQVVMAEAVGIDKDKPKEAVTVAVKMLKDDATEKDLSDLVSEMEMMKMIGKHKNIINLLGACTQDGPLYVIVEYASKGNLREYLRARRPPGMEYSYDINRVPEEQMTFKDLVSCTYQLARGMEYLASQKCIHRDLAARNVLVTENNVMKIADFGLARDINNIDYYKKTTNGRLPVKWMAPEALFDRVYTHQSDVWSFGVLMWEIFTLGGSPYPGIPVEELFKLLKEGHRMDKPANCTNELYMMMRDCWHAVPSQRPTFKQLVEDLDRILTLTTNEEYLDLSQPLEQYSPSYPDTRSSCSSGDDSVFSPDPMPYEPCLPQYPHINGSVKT

binding result: no binding
B1: rat anti-FGFR2 antibody FR2-10 (antibody, IgG2a, V domains shown)
VH: EVQLVESGGGLVQPGRSLKLSCVASGFRFNDFWMTWIRQAPGKGLEWVASITYTGDNTYYAGSVKGRITISRDNAKSTLYLQMNSLRSEDTATYYCTRDDYGGYSPYYMDAWGQGTSVTVSS
VL: DIQMTQSPSSLSAFLGDRVTITCRASQDIGNYLRWFQQKPGKSPRLMIYGATNLANGVPSRFSGSRSGSDYSLTINNLESEDMAIYYCLKHNEYPFTFGSGTKLEIKR
notes: Used as hybridoma culture supernatant in flow cytometry and as antibody purified from ascites elsewhere; also called rat FR2-10 antibody

Source: patent publication US20150125454A1 (Daiichi Sankyo, published 2015)
